How the values were obtained:
HeLa Kyoto [1] = experiment: solubility in G1/S (NP-40 vs SDS abundance) (log2 ratio); higher = more soluble; details: cell cycle stage: G1/S
HeLa Kyoto [2] = experiment: solubility change mitosis vs G1/S (difference of NP-40 vs SDS log2 ratios) (log2 ratio difference); higher = more soluble in mitosis
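For solubility change mitosis vs G1/S (difference of NP-40 vs SDS log2 ratios) in this document: synchronized HeLa Kyoto cells (double thymidine block for G1/S, nocodazole release for mitosis), protein amounts in NP-40 versus SDS lysates quantified by mass spectrometry, three biological replicates.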
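For solubility in G1/S (NP-40 vs SDS abundance) in this document: HeLa Kyoto cells arrested at G1/S by double thymidine block, proteins quantified by TMT10plex mass spectrometry in mild NP-40 versus SDS extracts, three biological replicates.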

Chain of TAF5L (chain, as listed by the source): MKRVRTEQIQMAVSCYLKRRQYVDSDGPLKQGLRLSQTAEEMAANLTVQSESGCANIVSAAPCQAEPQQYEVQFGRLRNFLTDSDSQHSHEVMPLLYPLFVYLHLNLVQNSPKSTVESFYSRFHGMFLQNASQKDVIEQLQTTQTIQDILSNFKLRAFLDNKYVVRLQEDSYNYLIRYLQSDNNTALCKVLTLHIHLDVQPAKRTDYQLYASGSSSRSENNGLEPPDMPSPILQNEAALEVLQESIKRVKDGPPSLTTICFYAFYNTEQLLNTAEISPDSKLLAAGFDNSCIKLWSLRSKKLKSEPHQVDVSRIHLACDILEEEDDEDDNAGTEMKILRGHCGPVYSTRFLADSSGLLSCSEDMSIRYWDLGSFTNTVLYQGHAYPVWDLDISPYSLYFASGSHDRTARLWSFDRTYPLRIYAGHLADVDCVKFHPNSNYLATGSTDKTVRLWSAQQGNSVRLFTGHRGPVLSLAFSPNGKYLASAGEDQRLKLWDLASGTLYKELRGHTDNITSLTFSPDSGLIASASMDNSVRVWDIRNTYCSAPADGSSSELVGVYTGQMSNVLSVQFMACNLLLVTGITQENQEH

Substance	solubility in G1/S (log2) (HeLa Kyoto [1])	solubility change mitosis (log2) (HeLa Kyoto [2])
MADFEELRNMVSSFRVSELQVLLGFAGRNKSGRKHDLLMRALHLLKSGCSPAVQIKIRELYRRRYPRTLEGLSDLSTIKSSVFSLDGGSSPVEPDLAVAGIHSLPSTSVTPHSPSSPVGSVLLQDTKPTFEMQQPSPPIPPVHPDVQLKNLPFYDVLDVLIKPTSLVQSSIQRFQEKFFIFALTPQQVREICISRDFLPGGRRDYTVQVQLRLCLAETSCPQEDNYPNSLCIKVNGKLFPLPGYAPPPKNGIEQKRPGRPLNITSLVRLSSAVPNQISISWASEIGKNYSMSVYLVRQLTSAMLLQRLKMKGIRNPDHSRALIKEKLTADPDSEIATTSLRVSLMCPLGKMRLTIPCRAVTCTHLQCFDAALYLQMNEKKPTWICPVCDKKAAYESLILDGLFMEILNDCSDVDEIKFQEDGSWCPMRPKKEAMKVSSQPCTKIESSSVLSKPCSVTVASEASKKKVDVIDLTIESSSDEEEDPPAKRKCIFMSETQSSPTKGVLMYQPSSVRVPSVTSVDPAAIPPSLTDYSVPFHHTPISSMSSDLPGLDFLSLIPVDPQYCPPMFLDSLTSPLTASSTSVTTTSSHESSTHVSSSSSRSETGVITSSGSNIPDIISLD [PIAS2]	0.155	-0.0526
MFSRNHRSRVTVARGSALEMEFKRGRFRLSLFSDLPEDTELQRKLDHEIRMREGACKLLAACSQREQALEATKSLLVCNSRILSYMGELQRRKEAQVLGKTSRRPSDSGPPAERSPCRGRVCISDLRIPLMWKDTEYFKNKGDLHRWAVFLLLQLGEHIQDTEMILVDRTLTDISFQSNVLFAEAGPDFELRLELYGACVEEEGALTGGPKRLATKLSSSLGRSSGRRVRASLDSAGGSGSSPILLPTPVVGGPRYHLLAHTTLTLAAVQDGFRTHDLTLASHEENPAWLPLYGSVCCRLAAQPLCMTQPTASGTLRVQQAGEMQNWAQVHGVLKGTNLFCYRQPEDADTGEEPLLTIAVNKETRVRAGELDQALGRPFTLSISNQYGDDEVTHTLQTESREALQSWMEALWQLFFDMSQWKQCCDEIMKIETPAPRKPPQALAKQGSLYHEMAIEPLDDIAAVTDILTQREGARLETPPPWLAMFTDQPALPNPCSPASVAPAPDWTHPLPWGRPRTFSLDAVPPDHSPRARSVAPLPPQRSPRTRGLCSKGQPRTWLQSPV [RTKN]	0.208	-0.0634
MEDERSFSDICGGRLALQRRYYSPSCREFCLSCPRLSLRSLTAVTCTVWLAAYGLFTLCENSMILSAAIFITLLGLLGYLHFVKIDQETLLIIDSLGIQMTSSYASGKESTTFIEMGKVKDIVINEAIYMQKVIYYLCILLKDPVEPHGISQVVPVFQSAKPRLDCLIEVYRSCQEILAHQKATSTSP [PIGH]	-0.116	0.146
MAKDAGLIEANGELKVFIDQNLSPGKGVVSLVAVHPSTVNPLGKQLLPKTFGQSNVNIAQQVVIGTPQRPAASNTLVVGSPHTPSTHFASQNQPSDSSPWSAGKRNRKGEKNGKGLRHFSMKVCEKVQRKGTTSYNEVADELVAEFSAADNHILPNESAYDQKNIRRRVYDALNVLMAMNIISKEKKEIKWIGLPTNSAQECQNLEVERQRRLERIKQKQSQLQELILQQIAFKNLVQRNRHAEQQASRPPPPNSVIHLPFIIVNTSKKTVIDCSISNDKFEYLFNFDNTFEIHDDIEVLKRMGMACGLESGSCSAEDLKMARSLVPKALEPYVTEMAQGTVGGVFITTAGSTSNGTRFSASDLTNGADGMLATSSNGSQYSGSRVETPVSYVGEDDEEDDDFNENDEDD [TFDP1]	0.136	-0.176
MNGFTPDEMSRGGDAAAAVAAVVAAAAAAASAGNGTGAGTGAEVPGAGAVSAAGPPGAAGPGPGQLCCLREDGERCGRAAGNASFSKRIQKSISQKKVKIELDKSARHLYICDYHKNLIQSVRNRRKRKGSDDDGGDSPVQDIDTPEVDLYQLQVNTLRRYKRHFKLPTRPGLNKAQLVEIVGCHFRSIPVNEKDTLTYFIYSVKNDKNKSDLKVDSGVH [SAP30]	0.247	0.267
MESTPSRGLNRVHLQCRNLQEFLGGLSPGVLDRLYGHPATCLAVFRELPSLAKNWVMRMLFLEQPLPQAAVALWVKKEFSKAQEESTGLLSGLRIWHTQLLPGGLQGLILNPIFRQNLRIALLGGGKAWSDDTSQLGPDKHARDVPSLDKYAEERWEVVLHFMVGSPSAAVSQDLAQLLSQAGLMKSTEPGEPPCITSAGFQFLLLDTPAQLWYFMLQYLQTAQSRGMDLVEILSFLFQLSFSTLGKDYSVEGMSDSLLNFLQHLREFGLVFQRKRKSRRYYPTRLAINLSSGVSGAGGTVHQPGFIVVETNYRLYAYTESELQIALIALFSEMLYRFPNMVVAQVTRESVQQAIASGITAQQIIHFLRTRAHPVMLKQTPVLPPTITDQIRLWELERDRLRFTEGVLYNQFLSQVDFELLLAHARELGVLVFENSAKRLMVVTPAGHSDVKRFWKRQKHSS [GTF2H4]	-0.135	0.00292
MNSDQDVALKLAQERAEIVAKYDRGREGAEIEPWEDADYLVYKVTDRFGFLHEEELPDHNVAVERQKHLEIERTTKWLKMLKGWEKYKNTEKFHRRIYKGIPLQLRGEVWALLLEIPKMKEETRDLYSKLKHRARGCSPDIRQIDLDVNRTFRDHIMFRDRYGVKQQSLFHVLAAYSIYNTEVGYCQGMSQITALLLMYMNEEDAFWALVKLFSGPKHAMHGFFVQGFPKLLRFQEHHEKILNKFLSKLKQHLDSQEIYTSFYTMKWFFQCFLDRTPFTLNLRIWDIYIFEGERVLTAMSYTILKLHKKHLMKLSMEELVEFFQETLAKDFFFEDDFVIEQLQISMTELKRAKLDLPEPGKEDEYPKKPLGQLPPELQSWGVHHLSNGQRSVGRPSPLASGRRESGAPHRRHEHSPHPQSRTGTPERAQPPRRKSVEEESKKLKDEADFQRKLPSGPQDSSRQYNHAAANQNSNATSNIRKEFVPKWNKPSDVSATERTAKYTMEGKGRAAHPALAVTVPGPAEVRVSNVRPKMKALDAEDGKRGSTASQYDNVPGPELDSGASVEEALERAYSQSPRHALYPPSPRKHAEPSSSPSKVSNKFTFKVQPPSHARYPSQLDGEARGLAHPPSYSNPPVYHGNSPKHFPTANSSFASPQFSPGTQLNPSRRPHGSTLSVSASPEKSYSRPSPLVLPSSRIEVLPVDTGAGGYSGNSGSPKNGKLIIPPVDYLPDNRTWSEVSYTYRPETQGQSWTRDASRGNLPKYSAFQLAPFQDHGLPAVSVDSPVRYKASPAAEDASPSGYPYSGPPPPAYHYRNRDGLSIQESVLL [USP6NL]	-0.388	-0.321
MDPIRSFCGKLRSLASTLDCETARLQRALDGEESDFEDYPMRILYDLHSEVQTLKDDVNILLDKARLENQEGIDFIKATKVLMEKNSMDIMKIREYFQKYGYSPRVKKNSVHEQEAINSDPELSNCENFQKTDVKDDLSDPPVASSCISEKSPRSPQLSDFGLERYIVSQVLPNPPQAVNNYKEEPVIVTPPTKQSLVKVLKTPKCALKMDDFECVTPKLEHFGISEYTMCLNEDYTMGLKNARNNKSEEAIDTESRLNDNVFATPSPIIQQLEKSDAEYTNSPLVPTFCTPGLKIPSTKNSIALVSTNYPLSKTNSSSNDLEVEDRTSLVLNSDTCFENLTDPSSPTISSYENLLRTPTPPEVTKIPEDILQLLSKYNSNLATPIAIKAVPPSKRFLKHGQNIRDVSNKEN [SKA3]	0.436	0.0344
MDQFGDILEGEVDHSFFDSDFEEGKKCETNSVFDKQNDDPKERIDKDTKNVNSNTGMQTTENYLTEKGNERNVKFPPEHPVENDVTQTVSSFSLPASSRSKKLCDVTTGLKIHVSIPNRIPKIVKEGEDDYYTDGEESSDDGKKYHVKSKSAKPSTNVKKSIRKKYCKVSSSSSSSLSSSSSGSGTDCLDAGSDSHLSDSSPSSKSSKKHVSGITLLSPKHKYKSGIKSTETQPSSTTPKCGHYPEESEDTVTDVSPLSTPDISPLQSFELGIANDQKVKIKKQENVSQEIYEDVEDLKNNSKYLKAAKKGKEKHEPDVSSKSSSVLDSSLDHRHKQKVLHDTMDLNHLLKAFLQLDKKGPQKHHFDQPSVAPGKNYSFTREEVRQIDRENQRLLKELSRQAEKPGSKSTIPRSADHPPKLYHSALNRQKEQQRIERENLALLKRLEAVKPTVGMKRSEQLMDYHRNMGYLNSSPLSRRARSTLGQYSPLRASRTSSATSGLSCRSERSAVDPSSGHPRRRPKPPNVRTAWL [CFAP97]	0.0651	-0.039
MSGGLAPSKSTVYVSNLPFSLTNNDLYRIFSKYGKVVKVTIMKDKDTRKSKGVAFILFLDKDSAQNCTRAINNKQLFGRVIKASIAIDNGRAAEFIRRRNYFDKSKCYECGESGHLSYACPKNMLGEREPPKKKEKKKKKKAPEPEEEIEEVEESEDEGEDPALDSLSQAIAFQQAKIEEEQKKWKPSSGVPSTSDDSRRPRIKKSTYFSDEEELSD [ZCRB1]	0.0915	0.122
MSKQQPTQFINPETPGYVGFANLPNQVHRKSVKKGFEFTLMVVGESGLGKSTLINSLFLTDLYPERVIPGAAEKIERTVQIEASTVEIEERGVKLRLTVVDTPGYGDAINCRDCFKTIISYIDEQFERYLHDESGLNRRHIIDNRVHCCFYFISPFGHGLKPLDVAFMKAIHNKVNIVPVIAKADTLTLKERERLKKRILDEIEEHNIKIYHLPDAESDEDEDFKEQTRLLKASIPFSVVGSNQLIEAKGKKVRGRLYPWGVVEVENPEHNDFLKLRTMLITHMQDLQEVTQDLHYENFRSERLKRGGRKVENEDMNKDQILLEKEAELRRMQEMIARMQAQMQMQMQGGDGDGGALGHHV [SEPT2]	0.276	-0.0125
MDEKTKKAEEMALSLTRAVAGGDEQVAMKCAIWLAEQRVPLSVQLKPEVSPTQDIRLWVSVEDAQMHTVTIWLTVRPDMTVASLKDMVFLDYGFPPVLQQWVIGQRLARDQETLHSHGVRQNGDSAYLYLLSARNTSLNPQELQRERQLRMLEDLGFKDLTLQPRGPLEPGPPKPGVPQEPGRGQPDAVPEPPPVGWQCPGCTFINKPTRPGCEMCCRARPEAYQVPASYQPDEEERARLAGEEEALRQYQQRKQQQQEGNYLQHVQLDQRSLVLNTEPAECPVCYSVLAPGEAVVLRECLHTFCRECLQGTIRNSQEAEVSCPFIDNTYSCSGKLLEREIKALLTPEDYQRFLDLGISIAENRSAFSYHCKTPDCKGWCFFEDDVNEFTCPVCFHVNCLLCKAIHEQMNCKEYQEDLALRAQNDVAARQTTEMLKVMLQQGEAMRCPQCQIVVQKKDGCDWIRCTVCHTEICWVTKGPRWGPGGPGDTSGGCRCRVNGIPCHPSCQNCH [RBCK1]	0.08	-0.0181
TAF5L	-0.145	-0.0612
